{
  "source": "patent US20060177862A1",
  "about": "(CAMBRIDGE ANTIBODY TECHNOLOGY, published 2006)",
  "molecular_target": "T1, TGFβ-1 (UniProt P01137 279-390)",
  "T1 construct": "Antigen coated on ELISA plates at 1 µg/ml",
  "T1 sequence (P01137 279-390 limits assumed)": "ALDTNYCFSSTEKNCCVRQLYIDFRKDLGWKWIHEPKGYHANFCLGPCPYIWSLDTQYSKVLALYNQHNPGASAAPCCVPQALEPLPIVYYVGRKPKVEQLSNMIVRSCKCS",
  "assay": "method not stated; value listed for the panel of existing phage-display scFv",
  "data": [
    {"binder": "ScFv 1 (scFv, V domains shown) VH: EVQLVESGGGLVQPGGSLRLSCAASGYAFTNYLIEWVRQAPGKGLEWVGVINPGSGGSNYNEKFKGRATISADNSKNTLYLQMNSLRAEDTAVYYCARSGGFYFDYWGQGTLVTVSS VL: DIQMTQSPSSLSASVGDRVTITCRASQSVLYSSNQKNYLAWYQQKPGKAPKLLIYWASTRESGVPSRFSGSGSGTDFTLTISSLQPEDFATYYCHQYLSSDTFGQGTKVEIK", "values": [
      {"measurement": "Kd", "result": 8, "unit": "nM"}
    ]}
  ]
}
